The target in this assay is 人DLL4分子 (full-length human DLL4 on the cell surface) (human) (UniProt Q9NR61). The assay is described as follows: indirect immunofluorescence, flow cytometry on CHO/DLL4 cells. On the technique in general: Flow cytometry measures light scatter and fluorescence of single cells or particles in a stream.

For one molecule, 效价 (titer (1:x dilution)) results are on record in CN107540747A.

Bounds are passed on as bounds.

Sequence of UniProt Q9NR61 (Q9NR61 27-685): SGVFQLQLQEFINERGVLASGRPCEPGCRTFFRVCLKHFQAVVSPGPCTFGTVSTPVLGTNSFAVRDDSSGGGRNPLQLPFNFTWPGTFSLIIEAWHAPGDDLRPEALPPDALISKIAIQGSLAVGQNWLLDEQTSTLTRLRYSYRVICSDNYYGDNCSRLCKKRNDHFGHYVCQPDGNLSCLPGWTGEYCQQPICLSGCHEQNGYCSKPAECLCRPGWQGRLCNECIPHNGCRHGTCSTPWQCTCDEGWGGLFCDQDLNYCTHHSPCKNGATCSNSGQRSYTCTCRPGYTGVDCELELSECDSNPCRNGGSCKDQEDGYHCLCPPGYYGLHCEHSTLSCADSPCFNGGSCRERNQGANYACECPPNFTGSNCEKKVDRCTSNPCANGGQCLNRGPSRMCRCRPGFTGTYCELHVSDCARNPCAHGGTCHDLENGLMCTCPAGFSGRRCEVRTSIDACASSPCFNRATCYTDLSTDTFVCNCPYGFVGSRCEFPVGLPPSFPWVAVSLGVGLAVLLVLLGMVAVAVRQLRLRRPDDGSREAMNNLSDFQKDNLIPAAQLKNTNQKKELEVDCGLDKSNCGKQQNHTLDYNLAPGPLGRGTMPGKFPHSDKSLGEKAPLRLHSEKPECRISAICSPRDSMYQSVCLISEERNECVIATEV

B1: 抗人DLL4单克隆抗体6F12 (antibody, mouse IgG2b, V domains shown)
VH: EVHVKQSGPELVKPGASVKMSCKASGYTFTSYLLHWVKQKPGQGLEWIGYIIPYNDGTRYNEKFKGKATLTSDKSSNTAYMELSSLTSEDSAVYYCAREGTGTGAFDYWGQGTSLTVSS
VL: DIVLTQSPAIMSASPGEKVTMTCRASSSVNYMYWYQQKPGSSPRLLIYDTSNLASGVPVRFSGSGSGTSYSLTISRMEAEDAATYYCQQWSSYPYTFGGGTKLEIK
The molecule B1 came in with a 效价 (titer (1:x dilution)) above 10000.
